Measured values: article PMC11357561, “Efficient 2,3-Butanediol Production from Ethanol by a Modified Four-Enzyme Synthetic Biosystem” (Molecules, 2024)

Assays:
Test in all cases: acetoin formation, Voges-Proskauer test, Michaelis-Menten fit
Details in all cases: 100 mM phosphate pH 8.0, 0.1 mM TPP, 1 mM Mg2+, 2-600 mM acetaldehyde
[1] = biological target: T1, formolase (FLS) (Pseudomonas fluorescens, UniProt Q9F4L3, A28I/W89R/L90T/R188H/A394G/G419N/A480W); format: biochemical
T1 construct: gene bznB; computationally designed formolase derived from benzaldehyde lyase; pET28a, E. coli BL21(DE3), Ni-NTA His-tag purified
T1 sequence (Q9F4L3 1-563 A28I/W89R/L90T/R188H/A394G/G419N/A480W): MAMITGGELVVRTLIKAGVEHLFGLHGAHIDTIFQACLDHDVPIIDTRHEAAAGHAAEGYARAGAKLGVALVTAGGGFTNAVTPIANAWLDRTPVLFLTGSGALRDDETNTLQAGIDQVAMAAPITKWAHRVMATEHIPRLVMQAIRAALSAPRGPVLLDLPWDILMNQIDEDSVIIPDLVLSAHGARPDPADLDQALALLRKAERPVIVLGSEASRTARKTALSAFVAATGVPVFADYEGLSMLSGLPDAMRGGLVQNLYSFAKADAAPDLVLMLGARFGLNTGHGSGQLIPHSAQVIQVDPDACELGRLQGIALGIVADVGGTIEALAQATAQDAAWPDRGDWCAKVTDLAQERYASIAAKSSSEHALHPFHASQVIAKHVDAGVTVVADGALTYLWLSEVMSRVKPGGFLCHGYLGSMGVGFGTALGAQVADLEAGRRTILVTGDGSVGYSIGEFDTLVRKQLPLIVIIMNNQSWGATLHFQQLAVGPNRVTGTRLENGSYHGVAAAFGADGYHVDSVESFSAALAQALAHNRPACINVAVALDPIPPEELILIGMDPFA
Text: (§1) acetoin formation, Voges-Proskauer test, Michaelis-Menten fit on formolase (FLS)

[2] = biological target: T2, formolase (FLS) (Pseudomonas fluorescens, UniProt Q9F4L3, A28I/W89R/L90T/R188H/A394G/G419N/A480W/L482E); format: biochemical
T2 construct: gene bznB; computationally designed formolase derived from benzaldehyde lyase; pET28a, E. coli BL21(DE3), Ni-NTA His-tag purified
T2 sequence (Q9F4L3 1-563 A28I/W89R/L90T/R188H/A394G/G419N/A480W/L482E): T1 sequence (Q9F4L3 1-563 A28I/W89R/L90T/R188H/A394G/G419N/A480W)
Text: as §1

[3] = system: T3, CC=O; format: biochemical, Pseudomonas fluorescens
T3 construct: computationally designed formolase derived from benzaldehyde lyase; pET28a, E. coli BL21(DE3), Ni-NTA His-tag purified
Text: as §1

CC=O [acetaldehyde]
Km [1]: 58.5 ± 2.32 mM | Km [2]: 50.9 ± 3.22 mM

formolase (FLS) (Pseudomonas fluorescens; A28I/A394G/A480W/F484A/G419N/L90T/R188H/W89R)
Km [3]: 53.28 ± 2.52 mM | kcat [3]: 1.74 ± 0.12 s⁻¹ | kcat/Km [3]: 32.6 M⁻¹ s⁻¹

formolase (FLS) (Pseudomonas fluorescens; A28V/A394G/A480W/G419N/L90T/R188H/W89R)
Km [3]: 81.95 ± 3.61 mM | kcat [3]: 3.33 ± 0.21 s⁻¹ | kcat/Km [3]: 40.6 M⁻¹ s⁻¹
